The results in this text go back to paper PMC8882475.

The experiment concerns the target FcRn (UniProt P55899). As to the kind of experiment: BLI.

What is called Kd is the concentration at which binding is half-saturated. In turn, “SI–F019, huACE2 (18–615) - IgG1 Fc null (from UniProt Q9BYF1-1 18-615) (Fc fusion)” gave a Kd of 0.0376 µM.
